This is an account of results in patent US20080200369A1 (SANFORD BURNHAM MEDICAL RESEARCH INSTITUTE, published 2008).

For the assay, the target named is T1, [^35S]-tastin (UniProt Q12815 1-778, limits assumed, [^35S]-methionine labeled).
T1 construct: also called in vitro translated [^35S]-labeled tastin
T1 sequence (looked up): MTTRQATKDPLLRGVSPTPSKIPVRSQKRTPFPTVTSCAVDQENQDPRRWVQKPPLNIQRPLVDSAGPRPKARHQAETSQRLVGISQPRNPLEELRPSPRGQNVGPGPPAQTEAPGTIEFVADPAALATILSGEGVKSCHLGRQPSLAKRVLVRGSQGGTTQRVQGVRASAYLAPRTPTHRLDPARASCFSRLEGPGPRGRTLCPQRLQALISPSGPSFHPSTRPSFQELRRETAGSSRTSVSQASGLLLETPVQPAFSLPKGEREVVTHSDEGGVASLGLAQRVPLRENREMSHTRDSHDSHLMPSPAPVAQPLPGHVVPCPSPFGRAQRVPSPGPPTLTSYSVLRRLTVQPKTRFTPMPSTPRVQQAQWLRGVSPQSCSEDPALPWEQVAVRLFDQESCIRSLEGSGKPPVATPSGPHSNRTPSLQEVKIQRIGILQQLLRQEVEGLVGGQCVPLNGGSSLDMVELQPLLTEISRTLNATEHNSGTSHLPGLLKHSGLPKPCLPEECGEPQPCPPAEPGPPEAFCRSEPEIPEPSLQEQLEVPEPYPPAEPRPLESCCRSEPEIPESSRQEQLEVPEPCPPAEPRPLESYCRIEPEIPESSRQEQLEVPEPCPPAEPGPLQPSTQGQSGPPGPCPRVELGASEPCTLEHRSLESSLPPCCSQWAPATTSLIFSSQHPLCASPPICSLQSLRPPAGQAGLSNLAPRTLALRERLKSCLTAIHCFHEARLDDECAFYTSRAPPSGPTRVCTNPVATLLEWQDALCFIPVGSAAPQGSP
In words: GST pull-down of in vitro translated [^35S]-protein on glutathione beads, autoradiography (FIG. 7A). Here is the method:
In vitro translated [³⁵S]-labeled trophinin, bystin or tastin was incubated with GST or GST-ErbB4 immobilized on glutathione beads. Bead-bound materials were visualized by autoradiography after gel electrophoresis. […] Bead-bound materials were visualized by autoradiography. Note that trophinin is captured by GSTErbB4 when bystin is present. […] HT-H cells treated with or without GWRQ peptide were subjected to immunoprecipitation with antiErbB4 antibody, followed by western blot analysis. Note that trophinin and bystin were co-immunoprecipitated with ErbB4 from cells not treated with GWRQ, whereas less trophinin was present in precipitates from GWRQ-treated cells.
A GST-fusion protein pull-down assay was carried out as described (Swaffield, J C, et al. 1996). Trophinin, bystin, and tastin proteins were produced as [³⁵S]-methionine labeled proteins using an vitro transcription and translation kit (TnT, Promega), according to the manufacturer's protocol. [³⁵S]-trophinin, [³⁵S]-bystin, and [³⁵S]-tastin were mixed individually with GSTErbB4 immobilized on glutathione beads in binding buffer (Swaffield, J C, et al. 1996) at 4° C. for 1 hour. After washing unbound materials with binding buffer, bead-bound material was eluted by boiling in SDS sample buffer. [³⁵S]-labeled proteins eluted were analyzed by SDS-PAGE followed by fluorography.

B1: GST-ErbB4 fusion protein (cytoplasmic domain of human ErbB4) (other, UniProt Q15303 676-1308, looked up)
chain: RRKSIKKKRALRRFLETELVEPLTPSGTAPNQAQLRILKETELKRVKVLGSGAFGTVYKGIWVPEGETVKIPVAIKILNETTGPKANVEFMDEALIMASMDHPHLVRLLGVCLSPTIQLVTQLMPHGCLLEYVHEHKDNIGSQLLLNWCVQIAKGMMYLEERRLVHRDLAARNVLVKSPNHVKITDFGLARLLEGDEKEYNADGGKMPIKWMALECIHYRKFTHQSDVWSYGVTIWELMTFGGKPYDGIPTREIPDLLEKGERLPQPPICTIDVYMVMVKCWMIDADSRPKFKELAAEFSRMARDPQRYLVIQGDDRMKLPSPNDSKFFQNLLDEEDLEDMMDAEEYLVPQAFNIPPPIYTSRARIDSNRSEIGHSPPPAYTPMSGNQFVYRDGGFAAEQGVSVPYRAPTSTIPEAPVAQGATAEIFDDSCCNGTLRKPVAPHVQEDSSTQRYSADPTVFAPERSPRGELDEEGYMTPMRDKPKQEYLNPVEENPFVSRRKNGDLQALDNPEYHNASNGPPKAEDEYVNEPLYLNTFANTLGKAEYLKNNILSMPEKAKKAFDNPDYWNHSLPPRSTLQHPDYLQEYSTKYFYKQNGRIRPIVAENPEYLSEFSLKPGTVLPPPPYRHRNTVV
notes: domain: cytoplasmic domain; Expressed in bacteria, immobilized on glutathione beads; Linker between GST and ErbB4 not described; not shown: glutathione S-transferase encoded by the vector pGEX-KG
For the molecule B1, the binding result was “no binding”.
